Measurements from US20100048478A1 (University of Pennsylvania, published 2010).
One block for each molecule: values may come before it.

Assays:
[1] = target: TRAIL receptor DR5 on SK-Hep1 human hepatoma cells (human) (UniProt O14763); test: cell-based or functional assay
[2] = target: T1, murine TWEAK, full length, on transiently transfected CHO cells (murine, UniProt O54907 1-249); test: flow cytometry on CHO cells transiently transfected with murine TWEAK, 4 C, detected with anti-mouse TRAIL Ab
T1 construct: whole, on cells; also called cell surface TWEAK
T1 sequence (looked up): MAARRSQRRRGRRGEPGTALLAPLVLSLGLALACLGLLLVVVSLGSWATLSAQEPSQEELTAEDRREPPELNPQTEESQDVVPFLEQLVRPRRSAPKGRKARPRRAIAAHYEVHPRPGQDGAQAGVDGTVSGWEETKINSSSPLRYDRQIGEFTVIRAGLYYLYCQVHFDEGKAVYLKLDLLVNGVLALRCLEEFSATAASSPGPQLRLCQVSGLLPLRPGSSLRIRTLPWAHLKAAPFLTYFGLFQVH
Protocol: B) CHO cells were transiently transfected with a murine TWEAK cDNA expression construct, and after 48 h, were incubated at 4° C. with purified Fn14-TRAIL or rTRAIL in sodium azide-containing buffer. The presence of membrane-bound TWEAK on transfectants, and the binding of Fn14-TRAIL to them, was verified by flow cytometry, using anti-mouse TWEAK Ab (B.1) and anti-mouse TRAIL Ab (B.2-5) as detecting Ab, respectively. (B.1) TWEAK is expressed on transfected CHO cells, as detected using anti-TWEAK Ab (solid black line) versus isotype control (filled histogram); (B.2) TRAIL is not detectable on CHO cells, when analyzed using anti-TRAIL Ab (solid black line) versus isotype control (filled histogram). (B.3 and B.4) TRAIL epitopes are enhanced when Fn14-TRAIL is added to TWEAK-expressing, as opposed to TWEAK-negative, CHO cells. Anti-TRAIL Ab and isotype control are represented by solid black line and filled histogram, respectively. […] Isotype control is shown as filled histogram.
To validate the identity of expressed Fn14-TRAIL, its ability to bind to Fn14's ligand, TWEAK, was assessed. To this end, CHO cells were transiently transfected with a murine TWEAK cDNA expression construct (in the pcDNA3 vector), and after 48 h, transfectants were incubated at 4° C. with purified Fn14-TRAIL or soluble TRAIL.

TRAIL receptor DR5 on SK-Hep1 human hepatoma cells (human), sequence (O14763 56-440): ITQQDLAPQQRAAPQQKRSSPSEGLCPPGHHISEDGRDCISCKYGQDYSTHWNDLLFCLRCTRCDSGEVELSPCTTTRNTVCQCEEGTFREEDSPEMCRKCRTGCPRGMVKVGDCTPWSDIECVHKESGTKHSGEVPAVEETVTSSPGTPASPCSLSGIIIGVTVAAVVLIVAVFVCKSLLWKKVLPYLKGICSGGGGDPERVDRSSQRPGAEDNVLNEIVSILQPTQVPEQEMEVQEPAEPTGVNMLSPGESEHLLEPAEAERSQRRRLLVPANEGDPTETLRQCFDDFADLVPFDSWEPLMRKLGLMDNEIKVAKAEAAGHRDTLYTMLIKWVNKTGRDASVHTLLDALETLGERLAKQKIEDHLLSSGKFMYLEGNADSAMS

Molecule: purified untagged human Fn14-TRAIL protein
- killing effect on SK-Hep1 cells (24 h, trypan blue live/dead count) [1]: 0.04 nM

- binding result [2]: no binding
B1: soluble TRAIL (aa 118-291 of murine TRAIL) (ligand, UniProt P50592 118-291, looked up)
chain: PRGGRPQKVAAHITGITRRSNSALIPISKDGKTLGQKIESWESSRKGHSFLNHVLFRNGELVIEQEGLYYIYSQTYFRFQEAEDASKMVSKDKVRTKQLVQYIYKYTSYPDPIVLMKSARNSCWSRDAEYGLYSIYQGGLFELKKNDRIFVSVTNEHLMDLDQEASFFGAFLIN
notes: range 118-291
